Measured values as given in article PMC2173631 (The Journal of Cell Biology, 2003).

Tests used:
[1] = target: T1, DAGLβ (Mus musculus, UniProt Q91WC9); experiment: radiolabeled DAG hydrolysis assay, homogenates of transfected COS cells; format: biochemical
T1 sequence (Q91WC9 1-669): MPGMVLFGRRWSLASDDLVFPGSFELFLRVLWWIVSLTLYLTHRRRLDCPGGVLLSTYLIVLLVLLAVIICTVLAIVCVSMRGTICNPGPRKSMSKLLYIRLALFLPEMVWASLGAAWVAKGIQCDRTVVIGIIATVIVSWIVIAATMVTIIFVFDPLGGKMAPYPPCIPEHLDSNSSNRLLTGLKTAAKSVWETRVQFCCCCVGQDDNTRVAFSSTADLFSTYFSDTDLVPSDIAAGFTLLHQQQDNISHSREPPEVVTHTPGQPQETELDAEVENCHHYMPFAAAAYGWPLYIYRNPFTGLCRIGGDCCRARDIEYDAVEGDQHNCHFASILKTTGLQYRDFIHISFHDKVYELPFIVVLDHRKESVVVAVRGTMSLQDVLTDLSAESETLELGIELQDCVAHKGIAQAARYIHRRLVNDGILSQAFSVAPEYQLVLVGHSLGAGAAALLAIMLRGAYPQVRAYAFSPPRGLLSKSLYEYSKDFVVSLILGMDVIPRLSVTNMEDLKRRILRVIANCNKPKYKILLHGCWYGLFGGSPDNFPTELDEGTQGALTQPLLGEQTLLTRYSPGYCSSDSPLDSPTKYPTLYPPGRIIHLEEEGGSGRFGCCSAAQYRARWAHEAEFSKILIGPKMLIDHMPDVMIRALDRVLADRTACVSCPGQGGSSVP

[2] = substrate: CCCCC/C=C\C/C=C\C/C=C\C/C=C\CCCC(=O)O[C@@H](CO)COC(=O)CCCCCCCCCCCCCCCCC; experiment: cells, lysate or membranes

Molecule: CCCCCCCCCCC[C@@H](C[C@@H]1OC(=O)[C@H]1CCCCCC)OC(=O)[C@H](CC(C)C)NC=O [THL, tetrahydrolipstatin]
- IC50 [1]: 100 nM

B1: DAGLβ (Mus musculus) (protein)
chain: MPGMVLFGRRWSLASDDLVFPGSFELFLRVLWWIVSLTLYLTHRRRLDCPGGVLLSTYLIVLLVLLAVIICTVLAIVCVSMRGTICNPGPRKSMSKLLYIRLALFLPEMVWASLGAAWVAKGIQCDRTVVIGIIATVIVSWIVIAATMVTIIFVFDPLGGKMAPYPPCIPEHLDSNSSNRLLTGLKTAAKSVWETRVQFCCCCVGQDDNTRVAFSSTADLFSTYFSDTDLVPSDIAAGFTLLHQQQDNISHSREPPEVVTHTPGQPQETELDAEVENCHHYMPFAAAAYGWPLYIYRNPFTGLCRIGGDCCRARDIEYDAVEGDQHNCHFASILKTTGLQYRDFIHISFHDKVYELPFIVVLDHRKESVVVAVRGTMSLQDVLTDLSAESETLELGIELQDCVAHKGIAQAARYIHRRLVNDGILSQAFSVAPEYQLVLVGHSLGAGAAALLAIMLRGAYPQVRAYAFSPPRGLLSKSLYEYSKDFVVSLILGMDVIPRLSVTNMEDLKRRILRVIANCNKPKYKILLHGCWYGLFGGSPDNFPTELDEGTQGALTQPLLGEQTLLTRYSPGYCSSDSPLDSPTKYPTLYPPGRIIHLEEEGGSGRFGCCSAAQYRARWAHEAEFSKILIGPKMLIDHMPDVMIRALDRVLADRTACVSCPGQGGSSVP
- Km [2]: 74.1 ± 4.9 µM

B2: DAGLα (Homo sapiens) (protein)
chain: MPGIVVFRRRWSVGSDDLVLPAIFLFLLHTTWFVILSVVLFGLVYNPHEACSLNLVDHGRGYLGILLSCMIAEMAIIWLSMRGGILYTEPRDSMQYVLYVRLAILVIEFIYAIVGIVWLTQYYTSCNDLTAKNVTLGMVVCNWVVILSVCITVLCVFDPTGRTFVKLRATKRRQRNLRTYNLRHRLEEGQATSWSRRLKVFLCCTRTKDSQSDAYSEIAYLFAEFFRDLDIVPSDIIAGLVLLRQRQRAKRNAVLDEANNDILAFLSGMPVTRNTKYLDLKNSQEMLRYKEVCYYMLFALAAYGWPMYLMRKPACGLCQLARSCSCCLCPARPRFAPGVTIEEDNCCGCNAIAIRRHFLDENMTAVDIVYTSCHDAVYETPFYVAVDHDKKKVVISIRGTLSPKDALTDLTGDAERLPVEGHHGTWLGHKGMVLSAEYIKKKLEQEMVLSQAFGRDLGRGTKHYGLIVVGHSLGAGTAAILSFLLRPQYPTLKCFAYSPPGGLLSEDAMEYSKEFVTAVVLGKDLVPRIGLSQLEGFRRQLLDVLQRSTKPKWRIIVGATKCIPKSELPEEVEVTTLASTRLWTHPSDLTIALSASTPLYPPGRIIHVVHNHPAEQCCCCEQEEPTYFAIWGDNKAFNEVIISPAMLHEHLPYVVMEGLNKVLENYNKGKTALLSAAKVMVSPTEVDLTPELIFQQQPLPTGPPMPTGLALELPTADHRNSSVRSKSQSEMSLEGFSEGRLLSPVVAAAARQDPVELLLLSTQERLAAELQARRAPLATMESLSDTESLYSFDSRRSSGFRSIRGSPSLHAVLERDEGHLFYIDPAIPEENPSLSSRTELLAADSLSKHSQDTQPLEAALGSGGVTPERPPSAAANDEEEEVGGGGGGPASRGELALHNGRLGDSPSPQVLEFAEFIDSLFNLDSKSSSFQDLYCMVVPESPTSDYAEGPKSPSQQEILLRAQFEPNLVPKPPRLFAGSADPSSGISLSPSFPLSSSGELMDLTPTGLSSQECLAADKIRTSTPTGHGASPAKQDELVISAR
- Km [2]: 154.7 ± 19.1 µM
